Consider two molecules from patent publication US20240092941A1 (FRED HUTCHINSON CANCER CENTER, published 2024).

The target in the assay is T1, soluble ROR1 ectodomain (UniProt Q01973 30-406, limits assumed).
T1 construct: extracellular domain
In words: method not stated in the legend of FIG. 1.

T1 sequence (Q01973 30-406 limits assumed): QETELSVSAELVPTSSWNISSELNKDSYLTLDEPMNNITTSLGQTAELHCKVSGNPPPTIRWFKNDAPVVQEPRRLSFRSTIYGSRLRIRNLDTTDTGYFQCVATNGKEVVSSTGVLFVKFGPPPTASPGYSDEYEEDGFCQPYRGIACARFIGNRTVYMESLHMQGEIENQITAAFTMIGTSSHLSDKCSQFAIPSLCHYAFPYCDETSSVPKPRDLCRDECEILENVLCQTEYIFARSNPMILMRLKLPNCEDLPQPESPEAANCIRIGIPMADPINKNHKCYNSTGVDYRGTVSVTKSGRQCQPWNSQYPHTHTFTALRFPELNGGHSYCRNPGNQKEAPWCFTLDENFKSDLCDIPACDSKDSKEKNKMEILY

B1: Nb11 WT (VHH)
VHH: QVKLVQSGGGLVQAGGSLRLSCAASGSIFSSASMGWYRQAPGKPREQVASITRDGNTYYEDDVKGRFTISRDNARSTGYLQMNSLTPEDTGVYYCNVYQLGFYDKWGQGTQVIVSS
With B1, the affinity, expressed as Kd, was 2 nM.

B2: Nb14 WT (VHH)
VHH: QVKLVQSGGGLVQTGGSLRLSCAASEITFDMYSMGWYREAPGKARDAVASITNRGNTYYADSVKGRFTISRDNAKKTMYLQMNSLKPEDTAVYYCNVYRTGFSDYWGQGTQVTVSS
B2 came in with a Kd of 2 nM.

In general, Kd refers to the equilibrium constant for the complex coming apart. A lower Kd goes with higher affinity.
